Ends that are not written are not given here.
What was measured:
[1] = target: T1, GST-β3cyto (GST fusion protein of the β3 integrin cytoplasmic domain) (UniProt P05106 742-788); experiment: phosphorylated phage binding, β3 colonies / BSA colonies
T1 construct: domain: cytoplasmic domain; Recombinant GST fusion coated on microtiter wells; also called β3-GST; β3 cytoplasmic domain fusion protein; not shown: glutathione S-transferase (GST) fusion partner
Experimental: (§1) Phosphorylation of peptide libraries with src family protein kinases (Fyn, c-Src, Lyn, and Syc) and serine/threonine kinases such as a MAP kinase were performed as described previously (Schmitz et al., 1996; Dente et al., 1997; Gram et al., 1997). Briefly, phage particles were collected from culture supernatants by double precipitation with 20% polyethylene glycol 8000 in 2.5 M NaCl. Particles were dissolved at 10¹² particles/ml. Purified phage (10 μl) were incubated for 3 hours at room temperature with different concentrations (35 to 3,500 units) of protein kinases in a reaction buffer volume of 50 μl. The reaction mixtures were transferred to tubes containing 10 μg of agarose-conjugated anti-P-Tyr, anti-P-Ser, or anti-P-Thr monoclonal antibodies to select phage displaying phosphorylated peptides. Bound phage were eluted by washing the column with 0.3 ml of elution buffer (0.1 M NaCl/glycine/1 mg/ml BSA, pH 2.35). The eluates were neutralized with 2 M Tris-base and incubated with 2 ml of a mid-log bacteria culture.
(§2) Amino acid sequences of the phagemid encoded peptides were deduced from nucleotide sequences.

[2] = target: T1, GST-β3cyto (GST fusion protein of the …); experiment: phage binding to β3, colonies with Fyn-phosphorylated phage / unphosphorylated phage
Experimental: as §1, §2

[3] = target: T1, GST-β3cyto (GST fusion protein of the …); experiment: phosphorylated phage binding, β3 colonies / GST colonies
Experimental: as §1, §2

T1 sequence (P05106 742-788): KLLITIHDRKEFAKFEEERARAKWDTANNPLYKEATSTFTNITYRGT

B1: Fyn-phosphorylated phage displaying RAILYRLAN (SEQ ID NO:116) (peptide)
peptide: RAILYRLAN
modifications: not fully specified (residue 5); also: displayed on phage
notes: whole phage tested
B1 was tested, and the “β3 or β5/BSA” value [1] was 20 ratio, the Phos/Unphos [2] was 2.8 ratio and the “β3 or β5/GST” value [3] was 1.3 ratio.
